Test [1] deals with T1, recombinant mouse (rm) Wnt3a biotinylated protein (mouse, UniProt P27467 19-352, biotinylated (sites not given)).
T1 construct: also called biotinylated mouse Wnt3a protein
In words: ELISA: in-solution binding with biotinylated mouse Wnt3a (100 ng/mL), capture on streptavidin plate, detection with goat anti-sFRP1 antibody, FIG. 8. On the procedure: (§1) Purified recombinant mouse sFRP proteins were tested in ELISA binding assays with a biotinylated mouse Wnt3a protein. […] His tagged-mouse sFRP2 and His tagged-mouse sFRP3 were detected with a mouse anti-His antibody. HA tagged-mouse sFRP5 was detected with a mouse anti-HA antibody.
(§2) A 96-well tissue culture plate was blocked with 1% BSA in PBS and used as an in-solution binding plate. 120 μL of total volume containing 100 ng/mL recombinant mouse (rm) Wnt3a biotinylated protein and sFRPs (1:3 serial dilution) were incubated overnight at 4° C. in the binding plate. Then 100 μL of binding solution was transferred to streptavidin coated 96-well ELISA plate, incubating overnight at 4° C. followed by the HRP detection. The mouse sFRP1 was detected with a goat anti-mouse sFRP1 antibody, mouse sFRP2 and mouse sFRP3 were His-tagged and were detected with a mouse anti-His antibody, mouse sFRP4 was detected with a sheep anti-mouse sFRP4 antibody, and the HA-tagged mouse sFRP5 was detected with a mouse […]. […] secondary antibodies were used to detect the primary antibodies followed by colorimetric readouts.
(In general: An ELISA detects its analyte on a solid surface through an enzyme-linked reagent.)

For test [2], the target named is T2, mouse Wnt1 (mouse, UniProt P04426 28-370).
T2 construct: In the co-IP and chromatography it is the protein found in CHO conditioned media; also called mWnt1; mWnt-1
T2 sequence (looked up): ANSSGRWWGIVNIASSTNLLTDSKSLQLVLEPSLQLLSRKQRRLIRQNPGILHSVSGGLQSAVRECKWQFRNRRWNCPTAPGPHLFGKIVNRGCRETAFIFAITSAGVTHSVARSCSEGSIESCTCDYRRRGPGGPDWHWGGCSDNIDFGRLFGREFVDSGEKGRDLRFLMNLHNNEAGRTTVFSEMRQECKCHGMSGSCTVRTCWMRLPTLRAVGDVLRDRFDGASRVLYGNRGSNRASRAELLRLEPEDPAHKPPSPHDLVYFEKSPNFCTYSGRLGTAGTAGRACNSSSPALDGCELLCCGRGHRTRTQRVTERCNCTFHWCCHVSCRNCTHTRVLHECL
In words: SDS-PAGE with Coomassie Blue of the gel-filtration purified complex, densitometry, FIG. 4F. The source says: FIG. 4A. Conditioned media from CHO cells co-expressing msFRP1 and mWnt-1 were loaded onto SP Sepharose column, and bound proteins were eluted with a linear gradient of high salt buffer. The distinct late elution peak was the position that sFRP was usually eluted. FIG. 4B. Fractions collected from SP elution were loaded onto 15 percent (%) SDS-PAGE and stained with silver. The 37 kDa bands represent sFRP1. FIG. 4C. The same fractions of FIG. 4B were subjected to Western blot probed with antibody against mWnt-1. mWnt-1 was detected as a ˜52 kDa band that is present in the same fractions where sFRP1 was detected. FIG. 4D. Pool from a SP Sepharose column was loaded and eluted from a gel filtration (Superdex 200) column. The earlier-eluted peak contained the sFRP1/Wnt-1 complex, while the later-eluted peak contained the free sFRP. FIG. 4E. Fractions collected from gel filtration elution were loaded onto a 15% SDS-PAGE gel and stained with Coomassie blue. The lower band (37 kDa) represents sFRP1 and the upper band (52 kDa) represents Wnt-1. FIG. 4F. sFRP1/Wnt-1 complex purified from a gel filtration column was loaded onto a 15% SDS-PAGE gel and stained with Coomassie blue. Two bands, at 37 kDa and 52 kDa, were observed, with a roughly 1:1 molar ratio.

Test [3] concerns the target T2, mouse Wnt1. In words: cell-based or functional assay.
Test [4] has as its target T1, recombinant mouse (rm) Wnt3a …. The experiment in a line: ELISA: in-solution binding with biotinylated mouse Wnt3a (100 ng/mL), capture on streptavidin plate, detection with mouse anti-His antibody, FIG. 8. As to the method: as §1, §2
Test [5] shares this target. The experiment in a line: ELISA: in-solution binding with biotinylated mouse Wnt3a (100 ng/mL), capture on streptavidin plate, detection with mouse anti-HA antibody, FIG. 8. As to the method: as §1, §2

T1 sequence (P27467 19-352 limits assumed): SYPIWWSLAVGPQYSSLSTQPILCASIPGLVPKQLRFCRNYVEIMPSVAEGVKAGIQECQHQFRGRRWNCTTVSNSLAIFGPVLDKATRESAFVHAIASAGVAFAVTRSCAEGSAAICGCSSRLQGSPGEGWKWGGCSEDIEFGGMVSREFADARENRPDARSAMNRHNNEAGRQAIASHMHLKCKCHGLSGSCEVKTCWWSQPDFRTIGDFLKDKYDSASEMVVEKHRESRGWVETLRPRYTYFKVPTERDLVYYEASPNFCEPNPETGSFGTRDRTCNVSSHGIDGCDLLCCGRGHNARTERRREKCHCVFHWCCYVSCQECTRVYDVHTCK

B1: mouse sFRP1 (other, UniProt Q8C4U3 32-314, looked up)
chain: SEYDYVSFQSDIGSYQSGRFYTKPPQCVDIPVDLRLCHNVGYKKMVLPNLLEHETMAEVKQQASSWVPLLNKNCHMGTQVFLCSLFAPVCLDRPIYPCRWLCEAVRDSCEPVMQFFGFYWPEMLKCDKFPEGDVCIAMTPPNTTEASKPQGTTVCPPCDNELKSEAIIEHLCASEFALRMKIKEVKKENGDKKIVPKKKKPLKLGPIKKKELKRLVLFLKNGADCPCHQLDNLSHNFLIMGRKVKSQYLLTAIHKWDKKNKEFKNFMKRMKNHECPTFQSVFK
notes: Secreted protein; also called msFRP1; msFRP-1
On to B1, for which the binding result in test [1] is “binds”. For the same molecule, in the test with mouse Wnt1 [2], the “molar ratio of the two bands in the purified complex” value was ~1 molar ratio (sFRP1:Wnt-1). Further, the “fold induction above background, HEK293 TCF9-SEAP hFz4/hLRP5 Wnt Reporter assay, conditioned media of CHO cells co-expressing mWnt1 and msFRP1” value with mouse Wnt1 [3] is 22 fold.

B2: mouse sFRP1-His (other, UniProt Q8C4U3 32-314, looked up, not shown: small tags and cut ends)
chain: SEYDYVSFQSDIGSYQSGRFYTKPPQCVDIPVDLRLCHNVGYKKMVLPNLLEHETMAEVKQQASSWVPLLNKNCHMGTQVFLCSLFAPVCLDRPIYPCRWLCEAVRDSCEPVMQFFGFYWPEMLKCDKFPEGDVCIAMTPPNTTEASKPQGTTVCPPCDNELKSEAIIEHLCASEFALRMKIKEVKKENGDKKIVPKKKKPLKLGPIKKKELKRLVLFLKNGADCPCHQLDNLSHNFLIMGRKVKSQYLLTAIHKWDKKNKEFKNFMKRMKNHECPTFQSVFK
On to B2, for which the “fold induction above background, HEK293 TCF9-SEAP hFz4/hLRP5 Wnt Reporter assay, conditioned media of CHO cells co-expressing mWnt1 and msFRP1-His” value in the test with mouse Wnt1 [3] came out at 17 fold.

B3: His tagged-mouse sFRP2 (other, UniProt P97299 25-295, looked up)
chain: LFLFGQPDFSYKRSNCKPIPANLQLCHGIEYQNMRLPNLLGHETMKEVLEQAGAWIPLVMKQCHPDTKKFLCSLFAPVCLDDLDETIQPCHSLCVQVKDRCAPVMSAFGFPWPDMLECDRFPQDNDLCIPLASSDHLLPATEEAPKVCEACKTKNEDDNDIMETLCKNDFALKIKVKEITYINRDTKIILETKSKTIYKLNGVSERDLKKSVLWLKDSLQCTCEEMNDINAPYLVMGQKQGGELVITSVKRWQKGQREFKRISRSIRKLQC
notes: also called msFRP2; not shown: His tag
Take B3: the binding result in test [4] is listed as “binds”.

B4: HA tagged-mouse sFRP5 (other, UniProt Q9WU66 22-314, looked up)
chain: APTRGQEYDYYGWQAEPLHGRSYSKPPQCLDIPADLPLCHTVGYKRMRLPNLLEHESLAEVKQQASSWLPLLAKRCHSDTQVFLCSLFAPVCLDRPIYPCRSLCEAARAGCAPLMEAYGFPWPEMLHCHKFPLDNDLCIAVQFGHLPATAPPVTKICAQCEMEHSADGLMEQMCSSDFVVKMRIKEIKIDNGDRKLIGAQKKKKLLKAGPLKRKDTKKLVLHMKNGASCPCPQLDNLTGSFLVMGRKVEGQLLLTAVYRWDKKNKEMKFAVKFMFSYPCSLYYPFFYGAAEPH
notes: not shown: HA tag
For the molecule B4, in test [5], the binding result is listed as “binds”.
